Measurements published in patent US20110039770A1 (PHARMAGAP, published 2011).
Where no end group is shown, it is not given here.

T1: PKC-ε (endogenous, IMR-32 lysate) (human, UniProt Q02156 1-737)
T1 construct: Band 1 and Band 2 (alternate splicing variants, not identified further) are kept under one molecule; the band is named in the assay field of each row; also called PKC-epsilon; PKC-ε Band 1
T1 sequence (looked up): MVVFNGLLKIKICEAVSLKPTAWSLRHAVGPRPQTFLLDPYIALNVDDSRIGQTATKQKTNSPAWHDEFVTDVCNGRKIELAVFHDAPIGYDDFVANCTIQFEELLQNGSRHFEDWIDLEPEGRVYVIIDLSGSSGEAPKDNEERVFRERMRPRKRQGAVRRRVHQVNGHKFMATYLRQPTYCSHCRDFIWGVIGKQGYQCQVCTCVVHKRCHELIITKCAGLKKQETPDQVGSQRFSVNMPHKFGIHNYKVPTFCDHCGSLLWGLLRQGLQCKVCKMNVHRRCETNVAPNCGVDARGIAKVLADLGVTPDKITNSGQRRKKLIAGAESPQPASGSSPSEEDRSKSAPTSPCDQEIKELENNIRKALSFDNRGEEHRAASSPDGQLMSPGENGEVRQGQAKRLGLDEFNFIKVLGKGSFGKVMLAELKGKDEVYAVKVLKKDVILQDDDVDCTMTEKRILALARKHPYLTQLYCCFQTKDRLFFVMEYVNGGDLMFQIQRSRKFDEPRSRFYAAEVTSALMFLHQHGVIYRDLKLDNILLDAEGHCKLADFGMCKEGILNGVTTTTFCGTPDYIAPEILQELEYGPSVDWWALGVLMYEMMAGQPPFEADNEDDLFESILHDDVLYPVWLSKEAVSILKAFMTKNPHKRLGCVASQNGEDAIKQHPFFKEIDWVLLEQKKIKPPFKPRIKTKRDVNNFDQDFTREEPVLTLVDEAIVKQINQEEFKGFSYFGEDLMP

B1: PRE 1 (peptide)
peptide: RRKKGGKDFVVKR
notes: also called peptide PRE 1; peptide recognition element 1

Columns and labels:
PKC-δ (purified isoform) [1] = target: T2, PKC-δ (purified isoform); assay: competitive ELISA, coated purified PKC-δ, vs anti-PKC δ (SC-213); PRE 50 µM
T2 construct: also called PKC-delta
T2 sequence (Q05655 whole entry, stated change not applied, canonical isoform): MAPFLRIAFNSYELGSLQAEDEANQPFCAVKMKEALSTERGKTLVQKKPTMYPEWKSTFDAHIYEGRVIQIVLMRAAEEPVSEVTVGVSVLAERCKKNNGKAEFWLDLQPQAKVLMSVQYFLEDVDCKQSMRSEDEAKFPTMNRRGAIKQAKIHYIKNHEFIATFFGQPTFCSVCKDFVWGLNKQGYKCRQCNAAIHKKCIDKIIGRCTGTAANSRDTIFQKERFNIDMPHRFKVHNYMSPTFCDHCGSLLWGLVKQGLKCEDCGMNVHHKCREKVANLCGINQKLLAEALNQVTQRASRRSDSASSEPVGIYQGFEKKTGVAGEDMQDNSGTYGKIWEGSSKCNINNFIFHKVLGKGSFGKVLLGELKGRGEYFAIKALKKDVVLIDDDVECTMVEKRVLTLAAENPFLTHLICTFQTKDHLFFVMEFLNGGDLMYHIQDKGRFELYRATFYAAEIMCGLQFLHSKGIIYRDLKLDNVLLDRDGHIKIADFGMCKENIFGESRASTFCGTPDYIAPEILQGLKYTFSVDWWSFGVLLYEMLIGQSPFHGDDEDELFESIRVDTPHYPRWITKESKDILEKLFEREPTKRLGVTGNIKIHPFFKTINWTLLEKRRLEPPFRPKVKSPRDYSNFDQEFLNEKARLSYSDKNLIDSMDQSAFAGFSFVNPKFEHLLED
Description: (§1) Greiner 96 well ELISA plates were coated with the appropriate PKC isoform diluted in PBSN (PBS with Calcium/Magnesium+0.05% Sodium azide w/w). 50 μL/well at 250 ng/mL was used. Control wells contained PBSN only. Plates were incubated overnight at 4° C.
(§2) The plates were washed 3 times with 200 μL of dH₂O per well, then 100 μL of blocking solution was added per well and the plate incubated for 1 h at 37° C. The washing steps with dH₂O were repeated and 50 μL of the appropriate PRE solution (PRE stock solution [20 mM in DMSO] diluted in PBSN) was added and the plate incubated for 1 h at room temperature.
(§3) 50 μL of 1:1000 dilution of Alkaline Phosphatase (AP) conjugated antibody (anti-rabbit for all except zeta, which was anti-goat) was then added and the plate incubated for 1 h at room temperature. Washing with dH₂O was then repeated. Finally, 100 μL of pNPP solution in pNPP buffer (2 mM MgCl₂, 100 mM Sodium bicarbonate in water, pH 9.8) was added to all wells and incubated for 8 minutes for α, βI, βII ε, and ζ, or for 15-20 mins for δ (until sufficient coloration is observed). The reaction was stopped by addition of Stop solution (2N NaOH) and the absorbance at 405 nm was read on a Galaxy Plate reader.

[2] = target: T3, PKC-βI (purified isoform) (Homo sapiens (Human), UniProt P05771 2-671); assay: competitive ELISA, coated purified PKC-βI, vs anti-PKC βI (SC-209); PRE 200 µM
T3 construct: also called PKC-beta I; PKC beta 1
T3 sequence (P05771 2-671 limits assumed): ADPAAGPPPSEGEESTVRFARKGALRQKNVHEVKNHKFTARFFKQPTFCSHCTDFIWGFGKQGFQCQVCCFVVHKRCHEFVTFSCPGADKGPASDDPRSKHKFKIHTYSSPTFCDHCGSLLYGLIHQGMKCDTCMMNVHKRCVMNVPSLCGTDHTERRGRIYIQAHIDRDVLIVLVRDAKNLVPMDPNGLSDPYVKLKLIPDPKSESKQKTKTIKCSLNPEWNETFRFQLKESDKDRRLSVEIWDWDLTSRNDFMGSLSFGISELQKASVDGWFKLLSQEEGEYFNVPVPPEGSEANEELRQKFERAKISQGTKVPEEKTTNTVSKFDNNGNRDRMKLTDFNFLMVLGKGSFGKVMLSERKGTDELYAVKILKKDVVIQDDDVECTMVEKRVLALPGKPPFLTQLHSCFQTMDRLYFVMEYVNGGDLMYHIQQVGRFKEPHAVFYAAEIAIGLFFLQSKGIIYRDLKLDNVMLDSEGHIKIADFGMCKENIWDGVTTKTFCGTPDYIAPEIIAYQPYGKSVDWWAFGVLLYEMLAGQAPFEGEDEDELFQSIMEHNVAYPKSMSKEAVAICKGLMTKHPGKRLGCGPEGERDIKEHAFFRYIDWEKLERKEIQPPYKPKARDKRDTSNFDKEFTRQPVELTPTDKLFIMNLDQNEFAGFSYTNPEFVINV
Description: as §1, §2, §3

PKC-α (purified isoform) [3] = target: T4, PKC-α (purified isoform) (Homo sapiens (Human), UniProt P17252 2-672); assay: competitive ELISA, coated purified PKC-α, vs anti-PKC α (SC-208); PRE 100 µM
T4 construct: also called purified PKC-alpha; commercially purified PKC-alpha
Description: as §1, §2, §3

[4] = target: T5, PKC-βII (purified isoform) (Homo sapiens (Human), UniProt P05771 2-621); assay: competitive ELISA, coated purified PKC-βII, vs anti-PKC βII (SC-210); PRE 100 µM
T5 construct: also called PKC-beta II; PKC beta 2
T5 sequence (P05771 other isoform, or with tags, fused parts or gaps limits assumed): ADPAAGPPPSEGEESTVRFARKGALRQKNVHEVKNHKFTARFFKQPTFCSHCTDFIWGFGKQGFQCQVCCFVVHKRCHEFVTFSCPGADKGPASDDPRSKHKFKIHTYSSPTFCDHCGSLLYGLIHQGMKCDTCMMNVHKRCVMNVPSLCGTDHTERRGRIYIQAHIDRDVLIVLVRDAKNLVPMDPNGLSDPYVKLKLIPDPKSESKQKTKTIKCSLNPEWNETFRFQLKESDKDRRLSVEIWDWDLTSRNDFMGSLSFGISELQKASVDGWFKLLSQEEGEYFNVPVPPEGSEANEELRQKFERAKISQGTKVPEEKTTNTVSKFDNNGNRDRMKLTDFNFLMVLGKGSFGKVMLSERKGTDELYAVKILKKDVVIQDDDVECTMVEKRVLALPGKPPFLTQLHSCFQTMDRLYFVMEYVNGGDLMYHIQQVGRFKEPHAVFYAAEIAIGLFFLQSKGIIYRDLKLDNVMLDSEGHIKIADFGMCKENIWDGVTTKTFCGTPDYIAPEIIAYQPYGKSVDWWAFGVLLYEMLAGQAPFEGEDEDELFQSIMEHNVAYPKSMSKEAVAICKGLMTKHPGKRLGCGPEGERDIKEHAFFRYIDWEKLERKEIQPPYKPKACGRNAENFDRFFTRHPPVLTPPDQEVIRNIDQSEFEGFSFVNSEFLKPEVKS
Description: as §1, §2, §3

[5] = target: T5, PKC-βII (purified isoform); assay: competitive ELISA, coated purified PKC-βII, vs anti-PKC βII (SC-210); PRE 200 µM
Description: as §1, §2, §3

PKC-δ (purified isoform) [6] = target: T2, PKC-δ (purified isoform); assay: competitive ELISA, coated purified PKC-δ, vs anti-PKC δ (SC-213); PRE 200 µM
Description: as §1, §2, §3

[7] = target: T3, PKC-βI (purified isoform); assay: competitive ELISA, coated purified PKC-βI, vs anti-PKC βI (SC-209); PRE 100 µM
Description: as §1, §2, §3

[8] = target: T3, PKC-βI (purified isoform); assay: competitive ELISA, coated purified PKC-βI, vs anti-PKC βI (SC-209); PRE 50 µM
Description: as §1, §2, §3

PKC-α (purified isoform) [9] = target: T4, PKC-α (purified isoform); assay: competitive ELISA, coated purified PKC-α, vs anti-PKC α (SC-208); PRE 200 µM
Description: as §1, §2, §3

PKC-α (purified isoform) [10] = target: T4, PKC-α (purified isoform); assay: competitive ELISA, coated purified PKC-α, vs anti-PKC α (SC-208); PRE 50 µM
Description: as §1, §2, §3

PKC-δ (purified isoform) [11] = target: T2, PKC-δ (purified isoform); assay: competitive ELISA, coated purified PKC-δ, vs anti-PKC δ (SC-213); PRE 100 µM
Description: as §1, §2, §3

[12] = target: T5, PKC-βII (purified isoform); assay: competitive ELISA, coated purified PKC-βII, vs anti-PKC βII (SC-210); PRE 50 µM
Description: as §1, §2, §3

[13] = target: T1, PKC-ε (endogenous, IMR-32 lysate); assay: WB competition Protocol B, IMR-32 extract, vs anti-PKC-ε Ab; PKC-ε Band 2; 50 µg peptide
Description: (§4) The ability of the peptides PRE 2 and PRE 3 (see Table 4) to interfere with the binding of a PKC-α-specific polyclonal antibody (Santa Cruz Biotechnology, Inc.) to PKC-α was determined using a modified version of the protocol outlined above in which the test peptide was added directly to the cell extract prior to electrophoresis at a concentration of either 5× or 15× the concentration of the protein applied to each well of the gel for the Western blots (20 μg).
(§5) Peptides PRE 2, PRE 3 and PRE 4 (see Table 4) were tested for their ability to interfere with the binding of isoform-specific polyclonal antibodies (Santa Cruz Biotechnology, Inc.) to […] using the general protocol described in Example 3. Two bands, representing alternate splicing variants of PKC-ε, were identified on the Western blot using this anti-PKC-ε antibody.

[14] = target: T1, PKC-ε (endogenous, IMR-32 lysate); assay: WB competition Protocol B, IMR-32 extract, vs anti-PKC-ε Ab; PKC-ε Band 2; 100 µg peptide
Description: as §4, §5

[15] = target: T1, PKC-ε (endogenous, IMR-32 lysate); assay: WB competition Protocol B, IMR-32 extract, vs anti-PKC-ε Ab; PKC-ε Band 1; 100 µg peptide
Description: as §4, §5

[16] = target: T1, PKC-ε (endogenous, IMR-32 lysate); assay: WB competition Protocol B, IMR-32 extract, vs anti-PKC-ε Ab; PKC-ε Band 1; 50 µg peptide
Description: as §4, §5

[17] = target: T1, PKC-ε (endogenous, IMR-32 lysate); assay: WB competition Protocol B, IMR-32 extract, vs anti-PKC-ε Ab; PKC-ε Band 2; 20 µg peptide
Description: as §4, §5

[18] = target: T1, PKC-ε (endogenous, IMR-32 lysate); assay: WB competition Protocol B, IMR-32 extract, vs anti-PKC-ε Ab; PKC-ε Band 1; 20 µg peptide
Description: as §4, §5

Binder | relative binding capacity (100-%n, DMSO subtracted) (PKC-δ (purified isoform) [1]) [%] | relative binding capacity (100-%n, DMSO subtracted) [2] [%] | relative binding capacity (100-%n, DMSO subtracted) (PKC-α (purified isoform) [3]) [%] | relative binding capacity (100-%n, DMSO subtracted) [4] [%] | relative binding capacity (100-%n, DMSO subtracted) [5] [%] | relative binding capacity (100-%n, DMSO subtracted) (PKC-δ (purified isoform) [6]) [%] | relative binding capacity (100-%n, DMSO subtracted) [7] [%] | relative binding capacity (100-%n, DMSO subtracted) [8] [%] | relative binding capacity (100-%n, DMSO subtracted) (PKC-α (purified isoform) [9]) [%] | relative binding capacity (100-%n, DMSO subtracted) (PKC-α (purified isoform) [10]) [%] | relative binding capacity (100-%n, DMSO subtracted) (PKC-δ (purified isoform) [11]) [%] | relative binding capacity (100-%n, DMSO subtracted) [12] [%] | also measured
Ac-RDAQNLIGISI-NH2 (also called peptide PRE 11) [PRE 11] | 34.1 | 12.5 | 5.96 | 11 | 6.4 | 18.7 | 14.2 | 9.86 | 13.3 | 0 | 21.5 | 7.14 | 
B1 | 35.7 | 13.4 | 0 | 0 | 0 | 49.4 | 13.9 | 19.8 | 2.1 | 0.69 | 45.2 | 0 | 
Ac-ISIGILQNADK-NH2 (also called peptide PRE 7) [PRE 7] | 3.06 |  | 6.72 | 11.1 | 2.59 | 0 |  |  | 6.59 | 0 | 0 | 5.42 | 
ILEDKGGDAQNLIGISI (also called peptide PRE 8) [PRE 8] | 6.96 |  | 0 | 0 | 0 | 6.68 |  |  | 0 | 0 | 3.38 | 1.11 | 
Ac-KDANQLIGISI-NH2 (also called peptide PRE 6) [PRE 6] | 17.5 | 6.14 | 0 | 0 | 0 | 14 | 7.93 | 0 | 0 | 0 | 13.2 | 0.08 | 
KDAQNLIGISL-NH2 (also called peptide PRE 2) [PRE 2] |  |  |  |  |  |  |  |  |  |  |  |  | Band Intensity [13]: 0; Inhibition (%) [13]: 100%; Relative Intensity (%) [13]: 0%; Band Intensity [14]: 0; Inhibition (%) [14]: 100%; Relative Intensity (%) [14]: 0%; Band Intensity [15]: 0; Inhibition (%) [15]: 100%; Relative Intensity (%) [15]: 0%; Band Intensity [16]: 0; Inhibition (%) [16]: 100%; Relative Intensity (%) [16]: 0%; Band Intensity [17]: 160; Inhibition (%) [17]: 38.6%; Relative Intensity (%) [17]: 61.4%; Band Intensity [18]: 323; Inhibition (%) [18]: 23.4%; Relative Intensity (%) [18]: 76.6%
